Experimental data reported in patent US20210309696A1 (ENLITISA SHANGHAI PHARMACEUTICAL, published 2021).
Non-standard residues stand in square brackets, D forms with d. No end group written: not given here. Hyp = O=C(O)[C@@H]1C[C@@H](O)CN1

T1: CysLTR1 (cysteinyl leukotriene receptor CysLT1), expressed in the CYSLTR1/HEK293 cell line (UniProt Q9Y271 1-337, limits assumed)
T1 sequence (looked up): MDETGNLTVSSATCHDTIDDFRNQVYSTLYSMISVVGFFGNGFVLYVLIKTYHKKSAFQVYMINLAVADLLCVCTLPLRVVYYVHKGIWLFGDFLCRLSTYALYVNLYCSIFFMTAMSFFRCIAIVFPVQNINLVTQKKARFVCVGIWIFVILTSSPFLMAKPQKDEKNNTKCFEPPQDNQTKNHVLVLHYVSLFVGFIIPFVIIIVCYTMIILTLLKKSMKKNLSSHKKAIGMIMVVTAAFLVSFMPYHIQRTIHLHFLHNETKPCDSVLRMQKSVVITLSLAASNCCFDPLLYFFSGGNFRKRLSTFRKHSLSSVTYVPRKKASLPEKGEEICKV


Legend:
Test in all cases: cell-based or functional assay
[1] = target: CysLTR1 (cysteinyl leukotriene receptor CysLT1), expressed in the CYSLTR1/HEK293 cell line (UniProt Q9Y271)
[2] = target: T1, CysLTR1 (cysteinyl leukotriene receptor …)
[3] = target: T1, CysLTR1 (cysteinyl leukotriene receptor …); remark: listed apart in the source
[4] = target: T1, CysLTR1 (cysteinyl leukotriene receptor …); remark: listed apart in the source

IC50 (nM), in vitro CysLTR1 FLIPR antagonist test (Fluo-4 calcium assay, CYSLTR1/HEK293 cells) [1] [nM] | IC50 (nM), in vitro CysLTR1 FLIPR antagonist test (Fluo-4 calcium assay, CYSLTR1/HEK293 cells) [2] [nM] | IC50 (nM), in vitro CysLTR1 FLIPR antagonist test (Fluo-4 calcium assay, CYSLTR1/HEK293 cells), repeat [3] [nM] | affinity to CysLTR1 relative to Compound A, derived from the FLIPR antagonist IC50s [4] [fold against Compound A] | Molecule
99.5 |  |  |  | Montelukast-Ala-Lys-Pro-Ser-Tyr-Hyp-Thr-Tyr-Hyp-Lys (montelukast covalently bonded at the N-terminus) (peptide)
 | 475 |  |  | {montelukast styrene}-AKPSY[Hyp][Hyp]TYK
 | 90.5 | 140 | 5 | montelukast-AKPSY[Hyp][Hyp]TYK
